This is an account of results in article PMC8971729 (2022).

Sequences and labels used below:
T1: human CD46 protein (His tag) (human, UniProt P15529)
T1 chain: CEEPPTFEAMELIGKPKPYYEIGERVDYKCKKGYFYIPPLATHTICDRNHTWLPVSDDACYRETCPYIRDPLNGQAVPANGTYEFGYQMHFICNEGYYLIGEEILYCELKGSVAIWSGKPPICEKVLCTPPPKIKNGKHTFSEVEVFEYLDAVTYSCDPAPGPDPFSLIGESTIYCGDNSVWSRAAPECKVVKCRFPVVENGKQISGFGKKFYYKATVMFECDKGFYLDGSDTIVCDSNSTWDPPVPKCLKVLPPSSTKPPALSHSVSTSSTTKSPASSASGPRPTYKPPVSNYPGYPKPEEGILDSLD

T2: Human desmoglein-2 Fc chimera protein (DSG2) (human, UniProt Q14126)
T2 chain: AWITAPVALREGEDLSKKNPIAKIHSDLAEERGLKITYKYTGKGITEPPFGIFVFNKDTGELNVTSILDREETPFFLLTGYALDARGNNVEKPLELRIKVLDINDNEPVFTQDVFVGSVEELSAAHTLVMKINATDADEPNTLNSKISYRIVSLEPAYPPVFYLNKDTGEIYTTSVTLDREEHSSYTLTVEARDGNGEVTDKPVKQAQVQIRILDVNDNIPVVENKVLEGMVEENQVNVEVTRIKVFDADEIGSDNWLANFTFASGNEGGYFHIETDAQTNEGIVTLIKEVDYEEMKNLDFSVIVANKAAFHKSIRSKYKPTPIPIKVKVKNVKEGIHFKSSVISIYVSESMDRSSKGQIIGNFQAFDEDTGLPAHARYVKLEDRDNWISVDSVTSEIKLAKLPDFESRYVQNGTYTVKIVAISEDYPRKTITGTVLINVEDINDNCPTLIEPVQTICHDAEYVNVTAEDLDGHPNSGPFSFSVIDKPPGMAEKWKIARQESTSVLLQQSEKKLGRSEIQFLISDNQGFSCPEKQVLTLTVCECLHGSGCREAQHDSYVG

B1: HAdV-C5 fiber knob protein (domain or fragment)
chain: KNNDKLTLWTTPAPSPNCRLNAEKDAKLTLVLTKCGSQILATVSVLAVKGSLAPISGTVQSAHLIIRFDENGVLLNNSFLDPEYWNFRNGDLTEGTAYTNAVGFMPNLSAYPKSHGKTAKSNIVSQVYLNGDKTKPVTLTITLNGTQETGDTTPSAYSMSFSWDWSGHNYINEIFATSSYTFSYIAQE
B2: HAdV-B3 fiber knob (domain or fragment)
chain: NSIALKNNTLWTGPKPEANCIIEYGKQNPDSKLTLILVKNGGIVNGYVTLMGASDYVNTLFKNKNVSINVELYFDATGHILPDSSSLKTDLELKYKQTADFSARGFMPSTTAYPFVLPNAGTHNENYIFGQCYYKASDGALFPLEVTVMLNKRLPDSRTSYVMTFLWSLNAGLAPETTQATLITSPFTFSYIREDD
B3: human CXADR Fc chimera protein (CAR) (Fc fusion)
chain: LSITTPEEMIEKAKGETAYLPCKFTLSPEDQGPLDIEWLISPADNQKVDQVIILYSGDKIYDDYYPDLKGRVHFTSNDLKSGDASINVTNLQLSDIGTYQCKVKKAPGVANKKIHLVVLVKPSGARCYVDGSEEIGSDFKIKCEPKEGSLPLQYEWQKLSDSQKMPTSWLAEMTSSVISVKNASSEYSGTYSCTVRNRVGSDQCLLRLNVVPPSNKAG

Holding throughout (assay): SPR
A general note: SPR reads the build-up and loss of mass on a sensor chip optically.

In test [1] the target is B3.
Test [2] concerns the target T1, human CD46 protein (His tag).
For test [3], the target named is T2, Human desmoglein-2 Fc chimera protein ….
Test [4] has as its target T1, human CD46 protein (His tag).
Test [5] concerns the target HAdV-D10 fiber knob protein (human adenovirus type 10 (HAdV-D10)).

Take B1: the koff (in general, the rate constant with which the complex falls apart) in test [1] came out at 0.0019 s⁻¹.

On to B2, for which the figures for the Kd in test [2] and in test [3] were 0.16 µM and 66.9 µM, respectively. The same molecule displayed a koff in test [4] of 0.025 s⁻¹.

B3 gave a koff in test [5] of 0.0019 s⁻¹.
